Test results as given in US20030124571A1, “Novel human septin and uses therefor” (The Government of the United States of America, priority 2000, published 2003).

Assays:
[1] = system: caspase 3; test: Caspase 3 fluorescent activity assay with aldehyde inhibitor, all cells examined; format: cell-based
Procedure: (§1) Cells were seeded to 50% confluence in six-well plates in media containing 10% fetal calf serum overnight. Following 24 hours after transfection, cells media was changed to contain 1% fetal calf serum with or without 10 ng/ml TGF-β for additional 24 hours. Cells were treated with caspase 3 aldehyde inhibitor (Ac-DEVD-CHO) supplied with caspase 3 fluorescent activity kit according to the manufacturers' protocols (Pharmingen, San-Diego, Calif.). Results were read using FL-600 microplate fluorescence reader (Bio-Tek).

[2] = system: COS cells; test: Apoptosis (nuclear fragmentation, immunofluorescence) of COS cells transfected with ARTS constructs; format: cell-based, monkey
Procedure: A C-terminal deletion construct lacking the last 24 amino acids of the ARTS protein was constructed and its apoptotic activity in COS cells was examined. […] Thus, the truncated construct is both more rapid in translocating to the nucleus and in inducing apoptosis in response to TGF-β.
COS cells were cultured as desribed previously (Section E, above) and cotransfected with either empty empty AU5 vector (based on pcDNA3 vectors provided by Dr. Silvio Gukind) or ARTS-AU5 with X-vector. ARTS-AU5 was prepared as desribed above. X-vector is a general term to describe any other vector which was cotransfected together with ARTS to asses its effect on ARTS activity.
24 hours after transfection, cell media was changed to contain 1% fetal calf serum with or without 10 ng/ml TGF-β and the cells were incubated for another 24 hours. The cells were then washed twice with PBS and fixed with 4% paraformaldehyde in PBS. Cells were blocked with 5% BSA in PBS for 30 minutes, then incubated with anti-AU5 fluroescein antibodies (Babco, Richmond, Calif.). The cells were also counterstained with DAPI for counting of fragmented nuclei.

[3] = system: caspase 3 in COS cells; test: Caspase 3 fluorescent activity assay, COS cells; format: cell-based, monkey; conditions: overexpression of construct, following treatment with TGF-β
Procedure: as §1

[4] = system: caspase 3 in A549 cells; test: Caspase 3 fluorescent activity assay, A549 cells; format: cell-based, human; conditions: overexpression of ARTS, following TGF-β treatment
Procedure: as §1

[5] = system: caspase 3 in NRP-154 cells; test: Caspase 3 fluorescent activity assay, NRP-154 cells; format: cell-based, rat; conditions: 10 ng/ml TGF-β 24 hours
Procedure: as §1

[6] = system: 3TP-Lux promoter construct in NRP-154 cells; test: p3TP-Lux reporter luciferase assay with ARTS cotransfection, NRP-154 cells; format: cell-based, rat; conditions: 10 ng/ml TGF-β 24 hours
Procedure: (§2) NRP-154 and FaO cells were seeded to 50% confluence in six-well plates in DMEM-F12 or DMEM, respectively, containing 10% fetal calf serum overnight.
(§3) Antisense- and sense-ARTS were generated by PCR using ARTS cDNA containing the 5′UTR of ARTS as a template. The PCR fragments were subcloned into the Bam H1-Eco R1 sites of pcDNA3 vector containing the Pcmv promotor (invitrogen, Carlsbad, Calif.).
(§4) NRP-154 cells and FaO cells were transfected with lug/sample p3TP-Lux reporter (a gift from Dr. Joan Massague), which contains 3 repeats of an AP-1 site from the collagenase promoter linked to a short region of the PAI-1 promoter along with equal concentrations of either pcDNA3 control vector (PGL2 vector commercially available from Promega, Madison, Wis.) or the ARTS-pcDNA3 construct, described above.
(§5) The cells were then treated with 10 ng/ml TGF-β for 24 hours.
(§6) After 24 hours, a cell lysate was prepared essentially as described in Part C, above.
(§7) Luciferase activity was determined in the cell lysate using an assay kit (BD Pharmingen, San Diego, Calif.), and a MLX Microtiter plate luminometer (Dynex Technologies, Chantilly, Va.). […]
(§8) Experiments were repeated three times with similar results. The results are expressed as the mean (±SEM) of duplicate luciferase assay, corrected for transfection efficiency.

[7] = system: 3TP-Lux promoter construct in FaO rat hepatoma cells; test: p3TP-Lux reporter luciferase assay with ARTS cotransfection, FaO cells; format: cell-based; conditions: 10 ng/ml TGF-β 24 hours
Procedure: as §2, §3, §4, §5, §6, §7, §8

[8] = system: M-NRP1 cells; test: Annexin-V apoptosis of GFP-sorted transfected M-NRP1 cells; format: cell-based, rat; conditions: M-NRP1 cells transfected with wildtype ARTS, 10 ng/ml TGF-β 24 hours
Procedure: (§9) Cells were seeded to 50% confluence in six-well plates in DMEM-F12 containing 10% fetal calf serum overnight.
(§10) ARTS whole cDNA in PCMV-sport vector was isolated from a human fetal cDNA library in the pcmv-sport vector (Gibco BRL Life Technologies). This vector is different from AU5 tagged vector.
(§11) The NRP-154 and M-NRP1 cells were cotransfected with a total of 2 μDNA, 1 μg ARTS-pcmv-sport and 1 μg a GFP vector (Clontech, Palo-Alto, Calif.), a marker for transfected cells, using Lipofectamine (Gibco BRL Life Technologies, Gaithersburg, Md.) or FuGENE 6 (Boehringer-Mannheim) according to the manufacturer's protocol.
(§12) After 24 hours, cells media was changed to contain 1% fetal calf serum with or without 10 ng/ml TGF-β for an additional 24 hours.
(§13) GFP-positive cells were sorted using FACS.
(§14) The sorted population was stained with streptavidin-sulforhodamin.
(§15) The number of apoptotic cells was measured using the TACS Annexin-V-biotin (Trevigen, Gaithersburg, Md.).

[9] = system: COS cells; test: TUNEL assay of transfected COS cells; format: cell-based, monkey; conditions: transfected COS cells, 10 ng/ml TGF-β for 24 hours
Procedure: COS cells were cultured as previously described (Section E, above). […] When these cells are transfected with ARTS and treatment with TGF-β they are induced to cell death.
COS cells were then transfected with control vector or wildtype ARTS, essentially as described above, and treated with 10 ng/ml TGF-β for 24 hours.
The apoptotic response of COS cells to TGF-β was assessed by a TUNEL assay ([…], now Roche, Indianapolis, Ind.) following the manufacturer's instructions.
COS cells were cultured and transfected, as described above, with equal concentrations of either pcDNA3 control vector, ARTS or M-ARTS-pcDNA3 using the Lipofectamine transfection reagent (Gibco BRL Life Technologies, Gaithersburg, Md.). The cells were treated with 1 o ng/ml TGF-β for 24 hours.
Apoptosis was examined in a TUNEL assay (Boehringer-Mannheim), according to the manufacturer's instructions.

[10] = system: NRP-154 cells; test: Annexin-V apoptosis of GFP-sorted transfected NRP-154 cells; format: cell-based, rat; conditions: NRP-154 cells overexpressing ARTS
Procedure: as §9, §10, §11, §12, §13, §14, §15

[11] = system: COS cells; test: Immunofluorescence localization / nuclear translocation of ARTS constructs in COS cells; format: cell-based, monkey; conditions: in response to treatment with TGF-β
Procedure: (§16) NRP-154 and COS cells were cultured and transfected as described above, and transfected with an ARTS-AU5 tagged construct, essentially as described in Part D, above. The cells were then treated with 10 ng/ml TGF-β.
(§17) An immunofluorescence assay was performed essentially as described in Part G2, above using anti-AU5 antibodies (commercially available Babco, Richmond, Calif.). Anti-AU5 FITC-conjugated secondary antibodies (Pierce) were used to detect transfected ARTS.

[12] = system: NRP-154 cells; test: Immunofluorescence localization / nuclear translocation of ARTS constructs in NRP-154 cells; format: cell-based, rat; conditions: following TGF-β treatment
Procedure: as §16, §17

Ac-DEVD-CHO was tested, and the “TGF-β induced caspase activity” value [1] was “inbitited the TGF-β induced caspase activity”.

B1: ARTS: Apoptosis Related protein in the TGF-β Signaling pathway; 274 amino acid human septin, SEQ. ID. NO: 2, expressed by transfection (protein, listed as Homo sapiens)
chain: MIKRFLEDTTDDGELSKFVKDFSGNASCHPPEAKTWASRPQVPEPRPQAPDLYDDDLEFRPPSRPQSSDNQQYFCAPAPLSPSARPRSPWGKLDPYDSSEDDKEYVGFATLPNQVHRKSVKKGFDFTLMVAGESGLGKSTLVNSLFLTDLYRDRKLLGAEERIMQTVEITKHAVDIEEKGVRLRLTIVDTPGFGDAVNNTECWKPVAEYIDQQFEQYFRDESGLNRKNIQDNRVHCCLYFISPFGHGYGPSLRLLAPPGAVKGTGQEHQGQGCH
notes: Apoptosis Related protein in the TGF-β Signaling pathway; ID; NO: 2, expressed by transfection
With B1 the “percent transfected apoptotic cells” value ([2]; COS cells, within 1 hour of TGF-β treatment) was 18%, the “induction of apoptosis by overexpression alone” value ([2]; COS cells, without TGF-β) was “does not induce apoptosis” and the “induction of apoptosis in transfected cells” value ([2]; cells treated with TGF-β) was “increased basal level and TGF-β-induced level of apoptosis”. For the same molecule, the “activation of caspase 3” value [3] was “marked increase in the activation of caspase 3”, the “caspase 3 activity” value [4] was “marked increase in caspase 3 activity” and the “caspase 3 activity” value [5] was “no further effect”. For the same molecule, the “basal and TGF-β-induced luciferase activity (3TP-Lux)” value [6] was “increased”, the “basal and TGF-β-induced luciferase activity (3TP-Lux)” value [7] was “increased” and the “sensitivity to TGF-β induced apoptosis” value [8] was “restored, in part, the sensitivity”. The “TUNEL staining / competence to undergo apoptosis” value [9] was “strong TUNEL staining” and the “effect on TGF-β induced apoptosis” value [10] was “lack of effect”.

B2: ARTS-AU5: AU5 tagged construct containing the entire ARTS coding sequence in pCEF-AU5 vector (protein)
chain: B1 chain
modifications: left off: small tags and cut ends
B2 was tested, and the “translocation to / localization in the nucleus” value [11] was “translocates to from the mitochondria to the nucleus” and the “translocation to the nucleus” value [12] was “translocates to from the mitochondria to the nucleus”.
